# From patent US20240368285A1 (HEFEI TG IMMUNOPHARMA, published 2024)
# Like-named read-outs stand apart in the source and are kept apart here.
# T1: MICA on human tumor cells (A-375, A549, HCT-15, MDA-MB-231) (human, UniProt Q29983 24-383)
# T1 construct: whole, on cells
# T1 sequence (looked up): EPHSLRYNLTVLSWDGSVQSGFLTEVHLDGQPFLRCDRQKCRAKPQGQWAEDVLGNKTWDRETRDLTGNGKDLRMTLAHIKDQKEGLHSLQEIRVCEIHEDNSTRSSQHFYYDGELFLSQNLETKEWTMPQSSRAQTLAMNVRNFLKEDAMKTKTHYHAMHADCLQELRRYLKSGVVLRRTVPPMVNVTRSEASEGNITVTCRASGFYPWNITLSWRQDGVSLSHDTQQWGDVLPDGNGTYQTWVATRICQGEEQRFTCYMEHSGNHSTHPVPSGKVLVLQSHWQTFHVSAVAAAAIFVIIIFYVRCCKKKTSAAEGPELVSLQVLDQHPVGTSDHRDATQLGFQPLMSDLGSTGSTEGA
# B1: affinity maturation antibody h5A1002 (antibody, V domains shown)
# VH: QVQLQESGPGLVKPSETLSLTCTVSGFSLTTYGGHWIRQPPGKGLEWIGMIWTDGWTDYNAAFISRVTISVDTSKNQFSLKLSSVTAADTAVYYCARKGHGYYYAMDYWGQGTLVTVSS
# VL: EIVLTQSPGTLSLSPGERATLSCTASSSVSSSYLHWYQQKPGQAPRLLIYSTSNLISGIPDRFSGSGSGTDFTLTISRLEPEDFAVYYCHQYHRSPFTFGQGTKLEIKR
# notes: Human IgG1, kappa; also called h5A1002-hIgG1
# Legend:
# MICA005α3-Fc = biological target: T2, MICA005α3-Fc (human); experiment: ELISA on coated MICA*005 α3-Fc (1 µg/ml), HRP anti-human Fab secondary, OD450
# T2 construct: also called MICA*005-Fc; domain α3 of MICA-005 Fc fusion protein
# T2 sequence (chain, as listed by the source limits assumed): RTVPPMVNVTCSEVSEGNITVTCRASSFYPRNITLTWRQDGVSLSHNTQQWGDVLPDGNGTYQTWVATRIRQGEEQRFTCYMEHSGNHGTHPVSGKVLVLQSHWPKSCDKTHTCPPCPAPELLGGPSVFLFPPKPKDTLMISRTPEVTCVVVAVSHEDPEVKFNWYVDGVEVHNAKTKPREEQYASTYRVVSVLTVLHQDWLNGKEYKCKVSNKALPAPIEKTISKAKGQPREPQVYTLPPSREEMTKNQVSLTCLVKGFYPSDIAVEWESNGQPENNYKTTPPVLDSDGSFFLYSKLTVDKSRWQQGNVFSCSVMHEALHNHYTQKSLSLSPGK
# Description: (§1) After the antibodies were added, signal intensity was used for judging the binding characteristics of the antibodies and MICA and MICB.
# (§2) The fusion proteins (produced in the Applicant's laboratory; an amino acid sequence of MICA002α3-Fc is as set forth in SEQ ID NO: 22; an amino acid sequence of MICA005α3-Fc is as set forth in SEQ ID NO: 24; an amino acid sequence of MICA008α3-Fc is as set forth in SEQ ID NO: 25; an amino acid sequence of MICA004α3-Fc is as set forth in SEQ ID NO: 23; an amino acid sequence of MICB001α3-Fc is as set forth in SEQ ID NO: 26; and an amino acid sequence of MICB005α3-Fc is as set forth in SEQ ID NO: 27) were diluted to a concentration of 1 μg/ml with PBS and then added into a 96-well plate in a volume of 100 μl/well. The plate was placed at 4° C. overnight. The PBS in the 96-well plate was removed by sucking. After the plate was washed with PBST (that is, PBS having a pH value of 7.2 included 0.1 volume % of Tween 20) for 6 times, PBS containing 10% of BSA was added in a volume of 200 μl/well. The plate was incubated at 37° C. for 2 hours for blocking. The blocking solution was removed. […]
# MICA008α3-Fc [1] = biological target: T3, MICA008α3-Fc (human); experiment: ELISA on coated MICA*008 α3-Fc (1 µg/ml), HRP anti-human Fab secondary, OD450
# T3 construct: also called MICA*008-Fc; domain α3 of MICA-008 Fc fusion protein
# T3 sequence (chain, as listed by the source limits assumed): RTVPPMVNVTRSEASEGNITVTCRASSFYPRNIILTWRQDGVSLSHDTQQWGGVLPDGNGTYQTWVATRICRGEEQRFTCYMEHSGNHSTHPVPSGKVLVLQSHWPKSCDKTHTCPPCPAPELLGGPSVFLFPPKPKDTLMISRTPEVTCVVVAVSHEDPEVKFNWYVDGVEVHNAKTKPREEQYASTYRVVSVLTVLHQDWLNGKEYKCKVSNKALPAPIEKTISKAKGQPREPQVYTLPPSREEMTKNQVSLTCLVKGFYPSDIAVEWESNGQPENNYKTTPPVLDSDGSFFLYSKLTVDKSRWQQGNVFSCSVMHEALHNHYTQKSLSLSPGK
# Description: as §1, §2
# MICB005α3-Fc = biological target: T4, MICB005α3-Fc; experiment: ELISA on coated MICB*005 α3-Fc (1 µg/ml), HRP anti-human Fab secondary, OD450
# T4 construct: also called MICB*005-Fc; domain α3 of MICB-005 Fc fusion protein
# T4 sequence (chain, as listed by the source limits assumed): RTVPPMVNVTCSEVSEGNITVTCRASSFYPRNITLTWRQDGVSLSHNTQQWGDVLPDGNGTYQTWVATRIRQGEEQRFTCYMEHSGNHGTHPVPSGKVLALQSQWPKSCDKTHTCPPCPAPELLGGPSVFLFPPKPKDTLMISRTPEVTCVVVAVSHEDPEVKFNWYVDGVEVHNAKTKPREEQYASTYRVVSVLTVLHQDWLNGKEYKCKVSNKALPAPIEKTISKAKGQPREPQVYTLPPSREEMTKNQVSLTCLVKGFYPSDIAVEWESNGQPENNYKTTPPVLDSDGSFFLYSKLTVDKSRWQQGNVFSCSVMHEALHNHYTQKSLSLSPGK
# Description: as §1, §2
# MICA008α3-Fc [2] = biological target: T3, MICA008α3-Fc; experiment: ELISA on coated MICA*008 α3-Fc (1 µg/ml), HRP anti-human Fab secondary, OD450; remark: listed apart in the source
# MICB001α3-Fc = biological target: T5, MICB001α3-Fc; experiment: ELISA on coated MICB*001 α3-Fc (1 µg/ml), HRP anti-human Fab secondary, OD450
# T5 construct: also called MICB*001-Fc; domain α3 of MICB-001 Fc fusion protein
# T5 sequence (chain, as listed by the source limits assumed): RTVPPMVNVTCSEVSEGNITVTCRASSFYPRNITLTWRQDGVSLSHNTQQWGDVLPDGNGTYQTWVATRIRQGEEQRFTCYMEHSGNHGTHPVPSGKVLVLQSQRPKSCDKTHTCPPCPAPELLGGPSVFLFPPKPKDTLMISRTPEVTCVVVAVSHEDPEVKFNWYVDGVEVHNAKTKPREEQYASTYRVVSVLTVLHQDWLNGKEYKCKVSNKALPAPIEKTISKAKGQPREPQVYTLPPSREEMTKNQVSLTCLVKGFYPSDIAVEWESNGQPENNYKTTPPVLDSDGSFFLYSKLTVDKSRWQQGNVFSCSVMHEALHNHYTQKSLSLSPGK
# [3] = biological target: T1, MICA on human tumor cells (A-375, A549, …); experiment: flow cytometry on A-375 cells, Alexa-647 goat anti-human secondary, % binding ratio
# Description: (§3) (2) Tumor cells were diluted to a density of 2×10⁶/mL with PBS and added into a 1.5 ml EP tube in a volume of 100 l/tube. 10 l/tube of goat serum was added into the EP tube; and blocking was conducted at 4° C. for 30 min. […] The tube was incubated at 4° C. for 30 min. 1 mL of PBS was added into the EP tube, and centrifugation was conducted 4° C. at a rate of 3,500 rpm for 5 min. The supernatant was removed. Then, the EP tube was washed once with the PBS, and the supernatant was removed after centrifugation. The cells were resuspended with PBS in a volume of 100 l/tube. An Alexa-647 labeled goat anti-human secondary antibody (purchased from Jackson lab) was added into the tube in a volume of 1 l/tube, and the tube was incubated in the dark at 4° C. for 30 min. The tube was washed twice with PBS, and the supernatant was removed after centrifugation. The cells were resuspended with the PBS in a volume of 200 l/tube, and detection was conducted by a flow cytometer. The results are as shown in FIG. 17A and FIG. 17B, FIG. 18A and FIG. 18B, FIG. 19A and FIG. 19B, and FIG. 20A and FIG. 20B.
# [4] = biological target: T1, MICA on human tumor cells (A-375, A549, …); experiment: flow cytometry on HCT-15 cells, Alexa-647 goat anti-human secondary, % binding ratio
# Description: as §3
# [5] = biological target: T1, MICA on human tumor cells (A-375, A549, …); experiment: flow cytometry on MDA-MB-231 cells, Alexa-647 goat anti-human secondary, % binding ratio
# Description: as §3
binder,measurement,setting,value
B1,EC50 (read off the curve),MICA005α3-Fc,~70 ng/mL
same,EC50 (read off the curve),MICA008α3-Fc [1],~80 ng/mL
same,EC50 (read off the curve),MICB005α3-Fc,~50 ng/mL
same,EC50 (read off the curve),MICA008α3-Fc [2],~0.06 µg/mL
same,EC50 (read off the curve),MICB001α3-Fc,~0.03 µg/mL
same,EC50 (read off the curve),[3],~0.3 µg/mL
same,EC50 (read off the curve),[4],~0.1 µg/mL
same,EC50 (read off the curve),[5],~0.3 µg/mL
